The record followed here is IntAct's records for PubMed 16278218.

Sequences and labels used below:
B1: Heat shock factor protein 1 (Homo sapiens), Q00613 (parent)
chain: MDLPVGPGAAGPSNVPAFLTKLWTLVSDPDTDALICWSPSGNSFHVFDQGQFAKEVLPKYFKHNNMASFVRQLNMYGFRKVVHIEQGGLVKPERDDTEFQHPCFLRGQEQLLENIKRKVTSVSTLKSEDIKIRQDSVTKLLTDVQLMKGKQECMDSKLLAMKHENEALWREVASLRQKHAQQQKVVNKLIQFLISLVQSNRILGVKRKIPLMLNDSGSAHSMPKYSRQFSLEHVHGSGPYSAPSPAYSSSSLYAPDAVASSGPIISDITELAPASPMASPGGSIDERPLSSSPLVRVKEEPPSPPQSPRVEEASPGRPSSVDTLLSPTALIDSILRESEPAPASVTALTDARGHTDTEGRPPSPPPTSTPEKCLSVACLDKNELSDHLDAMDSNLDNLQTMLSSHGFSVDTSALLDLFSPSVTVPDMSLPDLDSSLASIQELLSPQEPPRPPEAENSSPDSGKQLVHYTAQPLFLLDPGSVDTGSNDLPVLFELGEGSYFSEGDGFAEDPTISLLTGSEPPKAKDPTVS

In the experiment the parent is B1. To be noted: with mapk2_human MAPKAPK2, P49137.
mapk2_human MAPKAPK2, P49137, sequence (P49137 whole entry, looked up): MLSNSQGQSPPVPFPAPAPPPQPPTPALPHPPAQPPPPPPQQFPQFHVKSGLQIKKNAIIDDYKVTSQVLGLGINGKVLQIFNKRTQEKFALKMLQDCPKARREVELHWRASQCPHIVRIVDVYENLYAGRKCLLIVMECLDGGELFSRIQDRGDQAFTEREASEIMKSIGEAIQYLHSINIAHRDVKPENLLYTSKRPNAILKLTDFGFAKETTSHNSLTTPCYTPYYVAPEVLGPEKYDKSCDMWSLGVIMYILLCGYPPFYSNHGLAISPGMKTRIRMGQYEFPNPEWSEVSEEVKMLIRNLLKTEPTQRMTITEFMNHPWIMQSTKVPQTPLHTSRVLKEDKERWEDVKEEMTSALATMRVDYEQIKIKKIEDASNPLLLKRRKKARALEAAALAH
With MDLPVGPGAAGPSNVPAFLTKLWTLVSDPDTDALICWSPSGNSFHVFDQGQFAKEVLPKYFKHNNMASFVRQLNMYGFRKVVHIEQGGLVKPERDDTEFQHPCFLRGQEQLLENIKRKVTAVSTLKSEDIKIRQDSVTKLLTDVQLMKGKQECMDSKLLAMKHENEALWREVASLRQKHAQQQKVVNKLIQFLISLVQSNRILGVKRKIPLMLNDSGSAHSMPKYSRQFSLEHVHGSGPYSAPSPAYSSSSLYAPDAVASSGPIISDITELAPASPMASPGGSIDERPLSSSPLVRVKEEPPSPPQSPRVEEASPGRPSSVDTLLSPTALIDSILRESEPAPASVTALTDARGHTDTEGRPPSPPPTSTPEKCLSVACLDKNELSDHLDAMDSNLDNLQTMLSSHGFSVDTSALLDLFSPSVTVPDMSLPDLDSSLASIQELLSPQEPPRPPEAENSSPDSGKQLVHYTAQPLFLLDPGSVDTGSNDLPVLFELGEGSYFSEGDGFAEDPTISLLTGSEPPKAKDPTVS [S121A], the “effect of a mutation on the interaction” value was “increasing interaction”. On to MDLPVGPGAAGPSNVPAFLTKLWTLVSDPDTDALICWSPSGNSFHVFDQGQFAKEVLPKYFKHNNMASFVRQLNMYGFRKVVHIEQGGLVKPERDDTEFQHPCFLRGQEQLLENIKRKVTDVSTLKSEDIKIRQDSVTKLLTDVQLMKGKQECMDSKLLAMKHENEALWREVASLRQKHAQQQKVVNKLIQFLISLVQSNRILGVKRKIPLMLNDSGSAHSMPKYSRQFSLEHVHGSGPYSAPSPAYSSSSLYAPDAVASSGPIISDITELAPASPMASPGGSIDERPLSSSPLVRVKEEPPSPPQSPRVEEASPGRPSSVDTLLSPTALIDSILRESEPAPASVTALTDARGHTDTEGRPPSPPPTSTPEKCLSVACLDKNELSDHLDAMDSNLDNLQTMLSSHGFSVDTSALLDLFSPSVTVPDMSLPDLDSSLASIQELLSPQEPPRPPEAENSSPDSGKQLVHYTAQPLFLLDPGSVDTGSNDLPVLFELGEGSYFSEGDGFAEDPTISLLTGSEPPKAKDPTVS [S121D], for which the “effect of a mutation on the interaction” value is reported as “decreasing interaction”.
